One block for each binder: values may come before it.
Key:
[1] = molecular target: T1, folate receptor 1 (human, UniProt P15328 25-234); assay: cell-based or functional assay
[2] = molecular target: T2, Human Epidermal Growth Factor Receptor (HER2) (human, UniProt P04626 23-1255); assay: FACS titration on T47D cells
T2 construct: whole, on cells; also called human epidermal growth factor 2

[3] = molecular target: T2, Human Epidermal Growth Factor Receptor …; assay: cell-based or functional assay
[4] = molecular target: T2, Human Epidermal Growth Factor Receptor …; assay: cell-based or functional assay; remark: listed apart in the source
[5] = molecular target: T2, Human Epidermal Growth Factor Receptor …; assay: cell-based or functional assay; remark: listed apart in the source
[6] = molecular target: T1, folate receptor 1; assay: cell-based or functional assay; remark: listed apart in the source

T1 sequence (P15328 25-234): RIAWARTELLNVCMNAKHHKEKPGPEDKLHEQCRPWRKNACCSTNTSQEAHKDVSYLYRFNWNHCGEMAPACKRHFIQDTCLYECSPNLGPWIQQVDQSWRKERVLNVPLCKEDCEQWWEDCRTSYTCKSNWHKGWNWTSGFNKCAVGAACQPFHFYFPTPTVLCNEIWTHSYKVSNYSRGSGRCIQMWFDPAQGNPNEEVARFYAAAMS

EC50 (pM), T cell dependent cytolysis of Cal-51 cells [1]: 306 pM
B1: aCD3-Fc-aFOLR1 (bispecific antibody)
chain 1: EVQLVESGGGLVQPGGSLKLSCAASGFTFNSYAMNWVRQAPGKGLEWVARIRSKYNNYATYYADSVKGRFTISRDDSKNTAYLQMNNLKTEDTAVYYCVRHGNFGNSYVSWWAYWGQGTLVTVSSASTKGPSVFPLAPSSKSTSGGTAALGCLVKDYFPEPVTVSWNSGALTSGVHTFPAVLQSSGLYSLSSVVTVPSSSLGTQTYICNVNHKPSNTKVDKRVEPKSCDKTHTCPPCPAPEAAGGPSVFLFPPKPKDTLMISRTPEVTCVVVDVSHEDPEVKFNWYVDGVEVHNAKTKPREEQYNSTYRVVSVLTVLHQDWLNGKEYKCKVSNKALPAPIEKTISKAKGQPREPQVYTLPPSRKEMTKNQVSLTCLVKGFYPSDIAVEWESNGQPENNYKTTPPVLKSDGSFFLYSKLTVDKSRWQQGNVFSCSVMHEALHNHYTQKSLSLSPGKAAAGGGGSGGGGSQVQLQESGPGLVKPSQTLSLTCTVSGGSISSGAYYWTWIRQHPGKGLEWIGYIYYSGSTYYNPSLKSRVSISIDTSKNQFSLKLSSVTAADTAVYYCARGSSSWFDYWGQGTLVTVSSASTKGPSVFPLAPSSKSTSGGTAALGCLVKDYFPEPVTVSWNSGALTSGVHTFPAVLQSSGLYSLSSVVTVPSSSLGTQTYICNVNHKPSNTKVDKRVEPKSC
chain 2: not shown

binding result [2]: binds
B2: aCD3/HER2 heterodimer (bispecific antibody)
chain 1: EVQLVESGGGLVQPGGSLKLSCAASGFTFNSYAMNWVRQAPGKGLEWVARIRSKYNNYATYYADSVKGRFTISRDDSKNTAYLQMNNLKTEDTAVYYCVRHGNFGNSYVSWWAYWGQGTLVTVSSGGGGSGGGGSELVMTQTPSSLSASLGDRVTISCRASQDISNYLNWYQQKPDGTVKLLIYYTSRLHSGVPSRFSGSGSGTDYSLTISNLEQEDIATYFCQQGNTLPLTFGAGTKLEIKASTKGPSVFPLAPCSRSTSESTAALGCLVKDYFPEPVTVSWNSGALTSGVHTFPAVLQSSGLYSLSSVVTVPSSNFGTQTYTCNVDHKPSNTKVDKTVGGGGSAAAEPKSSDKTHTCPPCPAPEAAGGPSVFLFPPKPKDTLMISRTPEVTCVVVDVSHEDPEVKFNWYVDGVEVHNAKTKPREEQYNSTYRVVSVLTVLHQDWLNGKEYKCKVSNKALPAPIEKTISKAKGQPREPQVYTLPPSREEMTKNQVSLTCLVKGFYPSDIAVEWESNGQPENNYDTTPPVLDSDGSFFLYSDLTVDKSRWQQGNVFSCSVMHEALHNHYTQKSLSLSPGK
chain 2: not shown
notes: also called P136797.3; positive control heterodimeric antibody

EC50, T cell dependent cytolysis of JIMT-1 cells [3]: 0.0565 nM
EC50 (pM), T cell dependent cytolysis of BT474 cells [4]: 638 pM
EC50 (pM), T cell dependent cytolysis of SKOV-3 cells [4]: 165 pM
EC50 (pM), % CD25+ T cells (with SKOV-3 cells) [5]: 79.3 pM
EC50 (pM), % of T cells that are dividing (with SKOV-3 cells) [5]: 76.7 pM
B3: aHER2-Fc-aCD3 (bispecific antibody)
chain 1: EVQLLEQSGAELVRPGALVKLSCKASGFKIKDYFVNWVKQRPEQGLEWIGWIDPENDNSLYGPNFQDKASITADTSSNTGYLQLSGLTSEDTAVYYCALYYGSRGDAMDYWGQGTTVTVSSASTKGPSVFPLAPSSKSTSGGTAALGCLVKDYFPEPVTVSWNSGALTSGVHTFPAVLQSSGLYSLSSVVTVPSSSLGTQTYICNVNHKPSNTKVDKRVEPKSCDKTHTCPPCPAPEAAGGPSVFLFPPKPKDTLMISRTPEVTCVVVDVSHEDPEVKFNWYVDGVEVHNAKTKPREEQYNSTYRVVSVLTVLHQDWLNGKEYKCKVSNKALPAPIEKTISKAKGQPREPQVYTLPPSRKEMTKNQVSLTCLVKGFYPSDIAVEWESNGQPENNYKTTPPVLKSDGSFFLYSKLTVDKSRWQQGNVFSCSVMHEALHNHYTQKSLSLSPGKAAAGGGGSGGGGSEVQLVESGGGLVQPGGSLKLSCAASGFTFNSYAMNWVRQAPGKGLEWVARIRSKYNNYATYYADSVKGRFTISRDDSKNTAYLQMNNLKTEDTAVYYCVRHGNFGNSYVSWWAYWGQGTLVTVSSASTKGPSVFPLAPSSKSTSGGTAALGCLVKDYFPEPVTVSWNSGALTSGVHTFPAVLQSSGLYSLSSVVTVPSSSLGTQTYICNVNHKPSNTKVDKRVEPKSC
chain 2: not shown

EC50, T cell dependent cytolysis of JIMT-1 cells [3]: 0.0518 nM
B4: aCD3-Fc-aHER2 (bispecific antibody)
chain 1: EVQLVESGGGLVQPGGSLKLSCAASGFTFNSYAMNWVRQAPGKGLEWVARIRSKYNNYATYYADSVKGRFTISRDDSKNTAYLQMNNLKTEDTAVYYCVRHGNFGNSYVSWWAYWGQGTLVTVSSASTKGPSVFPLAPSSKSTSGGTAALGCLVKDYFPEPVTVSWNSGALTSGVHTFPAVLQSSGLYSLSSVVTVPSSSLGTQTYICNVNHKPSNTKVDKRVEPKSCDKTHTCPPCPAPEAAGGPSVFLFPPKPKDTLMISRTPEVTCVVVDVSHEDPEVKFNWYVDGVEVHNAKTKPREEQYNSTYRVVSVLTVLHQDWLNGKEYKCKVSNKALPAPIEKTISKAKGQPREPQVYTLPPSRKEMTKNQVSLTCLVKGFYPSDIAVEWESNGQPENNYKTTPPVLKSDGSFFLYSKLTVDKSRWQQGNVFSCSVMHEALHNHYTQKSLSLSPGKAAAGGGGSGGGGSEVQLLEQSGAELVRPGALVKLSCKASGFKIKDYFVNWVKQRPEQGLEWIGWIDPENDNSLYGPNFQDKASITADTSSNTGYLQLSGLTSEDTAVYYCALYYGSRGDAMDYWGQGTTVTVSSASTKGPSVFPLAPSSKSTSGGTAALGCLVKDYFPEPVTVSWNSGALTSGVHTFPAVLQSSGLYSLSSVVTVPSSSLGTQTYICNVNHKPSNTKVDKRVEPKSC
chain 2: not shown

EC50 (concentration for half maximal lysis), T cell dependent cytolysis of Cal-51 cells [6]: 0.114 nM
EC50 (concentration for half maximal lysis), T cell dependent cytolysis of T47D cells [6]: 0.105 nM
EC50 (pM), T cell dependent cytolysis of Cal-51 cells [1]: 60.9 pM
B5: aFOLR1-Fc-aCD3 (bispecific antibody)
chain 1: QVQLQESGPGLVKPSQTLSLTCTVSGGSISSGAYYWTWIRQHPGKGLEWIGYIYYSGSTYYNPSLKSRVSISIDTSKNQFSLKLSSVTAADTAVYYCARGSSSWFDYWGQGTLVTVSSASTKGPSVFPLAPSSKSTSGGTAALGCLVKDYFPEPVTVSWNSGALTSGVHTFPAVLQSSGLYSLSSVVTVPSSSLGTQTYICNVNHKPSNTKVDKRVEPKSCDKTHTCPPCPAPEAAGGPSVFLFPPKPKDTLMISRTPEVTCVVVDVSHEDPEVKFNWYVDGVEVHNAKTKPREEQYNSTYRVVSVLTVLHQDWLNGKEYKCKVSNKALPAPIEKTISKAKGQPREPQVYTLPPSRKEMTKNQVSLTCLVKGFYPSDIAVEWESNGQPENNYKTTPPVLKSDGSFFLYSKLTVDKSRWQQGNVFSCSVMHEALHNHYTQKSLSLSPGKAAAGGGGSGGGGSEVQLVESGGGLVQPGGSLKLSCAASGFTFNSYAMNWVRQAPGKGLEWVARIRSKYNNYATYYADSVKGRFTISRDDSKNTAYLQMNNLKTEDTAVYYCVRHGNFGNSYVSWWAYWGQGTLVTVSSASTKGPSVFPLAPSSKSTSGGTAALGCLVKDYFPEPVTVSWNSGALTSGVHTFPAVLQSSGLYSLSSVVTVPSSSLGTQTYICNVNHKPSNTKVDKRVEPKSC
chain 2: not shown

Reference: US20160257748A1 (Amgen, published 2016)
